Laboratory results reported in publication PMC5890618, “Structural and Functional Insights into Bacillus subtilis Sigma Factor Inhibitor, CsfB” (Structure(London, England:1993), 2018).

B1: CsfB^A48E (full-length CsfB variant A48E, residues 1-64) (natural protein, Bacillus subtilis, UniProt P37534 1-64, looked up)
chain: MDETVKLNHTCVICDQEKNRGIHLYTKFICLDCERKVISTSTSDPDYEFYVKKLKSIHTPPLYS
notes: Anti-sigma factor CsfB (also called Gin), Bacillus subtilis strain PY79, full length, residues 1-64, with A48E at the known cleavage point; Made by site-directed mutagenesis of pNIC28-CsfB; The His-tag was removed with TEV 'when required'; 15N-labelled for the NMR titrations; also called Gin A48E; source: E. coli BL21(DE3)pLysS, purified (HisTrap Ni Sepharose, Superdex75 SEC)
B3: σ^E (truncated sigma factor E, residues 17-239, lacking the N-terminal membrane-anchored pro-sequence) (domain or fragment, Bacillus subtilis, UniProt P06222 17-239, looked up)
chain: MKLGLKSDEVYYIGGSEALPPPLSKDEEQVLLMKLPNGDQAARAILIERNLRLVVYIARKFENTGINIEDLISIGTIGLIKAVNTFNPEKKIKLATYASRCIENEILMYLRRNNKIRSEVSFDEPLNIDWDGNELLLSDVLGTDDDIITKDIEANVDKKLLKKALEQLNEREKQIMELRFGLVGEEEKTQKDVADMMGISQSYISRLEKRIIKRLRKEFNKMV
notes: Cloned into pET28-TxrA; The tag was removed with TEV 'when required'; also called sigma E; SigE; source: E. coli BL21(DE3)pLysS, purified (HisTrap Ni Sepharose, Superdex75 SEC)

Key:
[1] = target: B3; assay: ITC; cell 60 uM CsfB^A48E, syringe 395 uM σ^E; 25°C; 19 injections of 2 ul; 50 mM HEPES pH 7.5, 150 mM KCl, 0.5 mM TCEP; fitted assuming 1:1 stoichiometry; conditions: both partners purified
[2] = target: T1, σ^G (recombinant full-length sigma factor G, residues 1-260) (Bacillus subtilis, UniProt P19940 1-260); assay: NMR titration; 15N-labelled CsfB (100 uM for CsfB^A48E) titrated with unlabelled sigma factor up to 1:2 molar equivalents; 1H-15N SOFAST-HMQC; 298 K; 50 mM HEPES pH 7.5, 150 mM KCl, 0.5 mM TCEP; conditions: both partners purified
T1 construct: Cloned into pET-46; also called sigma G; SigG; source: E. coli BL21(DE3)pLysS, purified (HisTrap Ni Sepharose, Superdex75 SEC)
T1 sequence (looked up): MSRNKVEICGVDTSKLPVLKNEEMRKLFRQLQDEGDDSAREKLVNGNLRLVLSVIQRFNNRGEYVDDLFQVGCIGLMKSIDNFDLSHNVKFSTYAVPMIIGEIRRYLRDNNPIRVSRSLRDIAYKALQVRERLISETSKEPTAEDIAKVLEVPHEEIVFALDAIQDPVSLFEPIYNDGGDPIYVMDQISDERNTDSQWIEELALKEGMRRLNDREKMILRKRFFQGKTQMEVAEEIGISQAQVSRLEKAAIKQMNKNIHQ

[3] = target: the molecule itself; assay: NMR solution structure; CsfB 1-48 dimer, >500 uM, 303 K, 50 mM HEPES pH 7.5, 150 mM KCl, 0.5 mM TCEP; intermolecular NOEs from 12C-filtered, 13C-edited NOESY on a mixed labelled/unlabelled dimer; ARIA2.3 with C2 symmetry
[4] = target: B1; assay: ITC; cell 60 uM CsfB^A48E, syringe 395 uM σ^E; 25°C; 19 injections of 2 ul; 50 mM HEPES pH 7.5, 150 mM KCl, 0.5 mM TCEP; fitted assuming 1:1 stoichiometry; conditions: both partners purified

With B1 the Kd [1] was 12.5 ± 2.4 nM and the binding result [2] was “binds”.

B2: CsfB^1-48 (truncated wild-type CsfB, stable degradation product, residues 1-48) (domain or fragment, Bacillus subtilis, UniProt P37534 1-48, looked up)
chain: MDETVKLNHTCVICDQEKNRGIHLYTKFICLDCERKVISTSTSDPDYA
notes: Produced as N-terminally histidine-tagged full-length CsfB that degraded to 1-48; Symmetrical homodimer by NMR; also called cleaved CsfB; truncated variant; source: E. coli BL21(DE3)pLysS, purified (HisTrap Ni Sepharose, Superdex75 SEC); arises by degradation of recombinant full-length CsfB
With B2 the “stoichiometry N” value [3] was 2.

With B3 the dH [4] was -8.04 ± 0.04 kcal/mol and the “stoichiometry N” value [4] was 1.01 sites.
